Measured values as given in publication PMC12125310.
Like-named read-outs stand apart in the source and are kept apart here.

T1: DOF6 (Col-0);RGL2 (Col) (Arabidopsis thaliana …, UniProt Q9M1E6;Q8GXW1 1-245;1-547, |)
T1 sequence 1: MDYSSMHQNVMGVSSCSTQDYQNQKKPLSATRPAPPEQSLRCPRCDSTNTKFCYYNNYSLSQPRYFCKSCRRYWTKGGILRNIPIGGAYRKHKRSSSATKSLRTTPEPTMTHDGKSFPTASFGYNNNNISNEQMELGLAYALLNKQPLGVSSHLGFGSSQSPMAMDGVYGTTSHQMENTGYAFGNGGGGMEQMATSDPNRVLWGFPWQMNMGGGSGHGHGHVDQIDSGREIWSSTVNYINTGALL
T1 sequence 2: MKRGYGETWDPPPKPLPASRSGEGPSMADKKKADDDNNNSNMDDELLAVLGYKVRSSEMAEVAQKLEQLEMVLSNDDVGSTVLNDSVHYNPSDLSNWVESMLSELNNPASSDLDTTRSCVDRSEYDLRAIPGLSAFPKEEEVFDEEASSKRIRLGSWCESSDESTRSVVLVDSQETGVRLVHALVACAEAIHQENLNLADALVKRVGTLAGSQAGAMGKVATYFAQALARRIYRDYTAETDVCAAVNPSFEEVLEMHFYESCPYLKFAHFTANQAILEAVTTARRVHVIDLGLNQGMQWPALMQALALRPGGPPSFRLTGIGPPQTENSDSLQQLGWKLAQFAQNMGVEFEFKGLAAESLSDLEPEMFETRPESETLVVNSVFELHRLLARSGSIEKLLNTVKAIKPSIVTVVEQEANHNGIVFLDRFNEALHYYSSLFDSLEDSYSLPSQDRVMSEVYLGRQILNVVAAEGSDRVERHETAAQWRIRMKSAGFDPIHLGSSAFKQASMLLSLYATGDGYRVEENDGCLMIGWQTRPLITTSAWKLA

T2: DOF6 (Col-0) (Arabidopsis thaliana (Col-0), UniProt Q9M1E6 1-245)
T2 sequence: T1 sequence 1

T3: RGL2 (Col) (Arabidopsis thaliana (Col-0), UniProt Q8GXW1 1-547)
T3 sequence: T1 sequence 2

B1: GA20ox3 Tib probe (dsDNA)
DNA 1: TTTAAAAATAAAATAAAAAGTATCATGATA
DNA 2: TATCATGATACTTTTTATTTTATTTTTAAA
B2: GA20ox3 Col probe (P8) (dsDNA)
DNA 1: TAAAAAATAAAAATGAAAAGTATCATGATA
DNA 2: TATCATGATACTTTTCATTTTTATTTTTTA

Key:
Experiment in all cases: EMSA
DOF6 (Col-0);RGL2 (Col) [1] = biological target: T1, DOF6 (Col-0);RGL2 (Col)
DOF6 (Col-0) = biological target: T2, DOF6 (Col-0)
DOF6 (Col-0);RGL2 (Col) [2] = biological target: T1, DOF6 (Col-0);RGL2 (Col); remark: listed apart in the source
RGL2 (Col) = biological target: T3, RGL2 (Col)

| Binder | binding result (DOF6 (Col-0);RGL2 (Col) [1]) | binding result (DOF6 (Col-0)) | binding result (DOF6 (Col-0);RGL2 (Col) [2]) | binding result (RGL2 (Col)) |
| --- | --- | --- | --- | --- |
| B1 | binds | binds |  |  |
| B2 |  | binds | binds | no binding |
